Columns and labels:
odorant receptor AaOR8 = assay: Aequorin luminescence measurement in HEK293FT cells co-expressing AaOR8 and a co-receptor, 1-octen-3-ol added; format: cell-based; conditions: 1-octen-3-ol 10^-4 to 10^-10 M; for intensity of response (relative amount of luminescence) to 1-octen-3-ol: compared to cells that expressed original AaORCO or DmORCO
Procedure: HEK293FT cells (purchased from invitrogen, Inc.) were inoculated into 10-cm Petri dishes at a concentration of 3×10^6 cells/Petri dish, and the cells were cultured in DMEM medium containing 10% FBS (manufactured by Nacalai Tesque, Inc.) for about 24 hours under the conditions of 37° C. and 5% CO2. 3 μg of any one of the co-receptor expression plasmids produced, 1.5 μg of any one of the odorant receptor expression plasmids produced, and 8 μg of Aequorin expression plasmid were mixed with 12.5 μL of Plus reagent and 31.25 μL of LIPOFECTAMINE LTX (manufactured by Invitrogen, Inc.), and the mixture was maintained for 30 minutes. Subsequently this liquid mixture was transfected into the above-mentioned cells. After 4 hours from the initiation of transfection, the cells were inoculated onto a 96-well plate at a concentration of 9×10^4 cells/well, and the cells were cultured in DMEM medium containing 10% FBS (manufactured by Nacalai Tesque, Inc.) for about 24 hours under the conditions of 37° C. and 5% CO2. Thereby, transformed cells having a co-receptor expression plasmid, an odorant receptor expression plasmid, and an aequorin expression plasmid transiently incorporated therein were obtained.
(§1) Aequorin is activated when hound to a calcium ion, and oxidizes a substrate such as coelenterazine, thus emitting light. […] Therefore, whether an odorant receptor complex functions an ion channel as a result of addition of a substance to be detected, can be measured from the change in the amount of luminescence.
A culture fluid of the transformed cells was removed, and the medium was exchanged with Hanks-HEPES (20 mM, pH 7.4) including Assay buffer (0.5 μM coelenterazine h (manufactured by Promega Corporation) and 0.3% BSA. culture system was left to stand for another 4 hours at room temperature. Subsequently, a substance to be detected, which corresponded to an odorant receptor, was added to the cell culture using FLEXSTATION 3 (manufactured by Molecular Devices, LLC), and at the same time, the amount of luminescence of the cells was measured. As a control substance, the amount of luminescence in the cells to which dimethyl sulfoxide had been added was designated as 1, and the amount or luminescence of cells to which the substance to be detected was added was calculated as a relative value.
(§2) Cells into which: • an expression plasmid of odorant receptor AaOR8; • an expression plasmid of any one of co-receptor AaORCO or DmORCO, or various chimeric co-receptors Dm-AaORCO having different positions of recombination [Dm(NT-EC1)AaORCO, Dm(NT-TM3)AaOROC, Dm(NT-TM4)AaORCO, Dm(NT-TM5)AaORCO, or Dm(NT-TM6)AaORCO]; and • an aequorin expression plasmid had been incorporated were used, and the amount of luminescence was measured as explained above. 1-Octen-3-ol was used as a substance to be detected, and 1-octen-3-ol was added to the culture fluid at a concentration of 10^−4 M, 10^−5 M, 10^−6 M, 10^−7 M, 10^−8 M, 10^−9 M, or 10^−10 M. The results are presented in FIG. 1.
as §2, with “AmORCO” for “AaORCO”, “Dm-AmORCO” for “Dm-AaORCO”, “[Dm(NT-TM3)AmOROC, Dm(NT-TM4)AmORCO, Dm(NT-TM5)AmORCO,” for “[Dm(NT-EC1)AaORCO, Dm(NT-TM3)AaOROC, Dm(NT-TM4)AaORCO, Dm(NT-TM5)AaORCO,”, “Dm(NT-TM6)AmORCO];” for “Dm(NT-TM6)AaORCO];”, “2. […]” for “1.”

odorant receptor DmOR47a = assay: Aequorin luminescence measurement in HEK293FT cells co-expressing DmOR47a and a co-receptor, pentyl acetate added; format: cell-based, Drosophila melanogaster; conditions: pentyl acetate 10^-4 to 10^-7 M, compared to cells that expressed original DmORCO or AmORCO
Procedure: (§3) HEK293FT cells (purchased from invitrogen, Inc.) were inoculated into 10-cm Petri dishes at a concentration of 3×10^6 cells/Petri dish, and the cells were cultured in DMEM medium containing 10% FBS (manufactured by Nacalai Tesque, Inc.) for about 24 hours under the conditions of 37° C. and 5% CO2. 3 μg of any one of the co-receptor expression plasmids produced, 1.5 μg of any one of the odorant receptor expression plasmids produced, and 8 μg of Aequorin expression plasmid were mixed with 12.5 μL of Plus reagent and 31.25 μL of LIPOFECTAMINE LTX (manufactured by Invitrogen, Inc.), and the mixture was maintained for 30 minutes. Subsequently this liquid mixture was transfected into the above-mentioned cells. […]
as §1, with “luminescence. […]” for “luminescence.”
(§4) Cells into which: • an expression plasmid of odorant receptor DmOR47a; • an expression plasmid of any one of co-receptor DmORCO or AmORCO, or chimeric co-receptor Dm(NT-TM4)AmORCO; and • an aequorin expression plasmid had been incorporated were used, and the amount of luminescence was measured as explained above. […]

odorant receptor BmOR56 = assay: Aequorin luminescence measurement in HEK293FT cells co-expressing BmOR56 and a co-receptor, cis-jasmone added; format: cell-based, Bombyx mori; conditions: cis-jasmone 10^-5 to 10^-11 M, compared to cells that expressed BmORCO and BmOR56
Procedure: as §3
as §1, with “luminescence. […]” for “luminescence.”
as §4, with “BmOR56;” for “DmOR47a;”, “BmORCO” for “DmORCO or AmORCO,”

[1] = compared to cells that expressed original AaORCO or AmORCO

odorant receptor DmOR47a, sequence (as listed by the source, one chain of several): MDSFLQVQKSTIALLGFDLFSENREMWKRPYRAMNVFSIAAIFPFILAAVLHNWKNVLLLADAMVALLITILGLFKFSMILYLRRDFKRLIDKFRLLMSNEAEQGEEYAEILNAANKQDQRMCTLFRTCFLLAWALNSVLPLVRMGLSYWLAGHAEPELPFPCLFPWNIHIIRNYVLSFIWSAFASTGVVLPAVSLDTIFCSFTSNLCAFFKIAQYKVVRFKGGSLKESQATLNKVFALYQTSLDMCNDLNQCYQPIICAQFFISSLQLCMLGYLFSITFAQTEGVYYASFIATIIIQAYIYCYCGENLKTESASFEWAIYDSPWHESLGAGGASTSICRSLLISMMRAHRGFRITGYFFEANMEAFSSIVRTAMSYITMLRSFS
odorant receptor BmOR56, sequence (as listed by the source, one chain of several): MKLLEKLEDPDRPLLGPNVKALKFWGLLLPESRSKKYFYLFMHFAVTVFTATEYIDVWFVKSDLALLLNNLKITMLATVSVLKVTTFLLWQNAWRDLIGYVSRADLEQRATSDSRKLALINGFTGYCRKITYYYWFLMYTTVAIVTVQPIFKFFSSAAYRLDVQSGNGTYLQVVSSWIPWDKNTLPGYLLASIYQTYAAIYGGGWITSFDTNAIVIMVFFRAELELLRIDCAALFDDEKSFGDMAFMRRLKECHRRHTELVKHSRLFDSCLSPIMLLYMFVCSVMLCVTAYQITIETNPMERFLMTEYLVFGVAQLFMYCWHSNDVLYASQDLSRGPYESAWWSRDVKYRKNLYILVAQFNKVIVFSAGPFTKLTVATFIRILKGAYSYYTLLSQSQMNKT

B1: Dm(NT-TM4)AmORCO: chimeric co-receptor: NT to TM4 from Drosophila co-receptor, IC2 to C-terminal domain from Apis co-receptor; SEQ ID NO:100 (protein)
chain: MTTSMQPSKYTGLVADLMPNIRAMKYSGLFMHNFTGGSAFMKKVYSSVHLVFLLMQFTFILVNMALNAEEVNELSGNTITTLFFTHCITKFIYLAVNQKNFYRTLNIWNQVNTHPLFAESDARYHSIALAKMRKLFFLVMLTTVASATAWTTITFFGDSVKMVVDHETNSSIPVEIPRLPIKSFYPWNASHGMFYMISFAFQIYYVLFSMIHSNLCDVMFCSWLIFACEQLQHLKNIMKPLMEFSATLDTVVPNSGELFKAGSAEQPKEQEPLPPVTPPQGENMLDMDLRGIYSNRTDFTTTFRPTAGMTFNGGVGPNGLTKKQEMLVRSAIKYWVERHKHIVRLVTAIGDAYGVALLLHMLTTTITLTLLAYQATKIHAVDTYAASVVGYLLYSLGQVFMLCIFGNRLIEESSSVMEAAYSCHWYDGSEEAKTFVQIVCQQCQKAMSISGAKFFTVSLDLFASVLGAMVTYFMVLVQLK
Odorant receptor AaOR8; compared to cells that expressed original AmORCO or DmORCO
  increase in the amount of luminescence caused by addition of 1-octen-3-ol: the increase in the amount of luminescence caused by addition of 1-octen-3-ol was larger
Odorant receptor DmOR47a
  response (relative amount of luminescence) to pentyl acetate: responded more strongly to pentyl acetate
Odorant receptor BmOR56
  response (relative amount of luminescence) to cis-jasmone: responded more strongly to cis-jasmone

B2: Aa(NT-TM4)AmORCO: chimeric co-receptor: NT to TM4 from Aedes co-receptor, IC2 to C-terminal domain from Apis co-receptor; SEQ ID NO:108 (protein)
chain: MNVQPTKYHGLVLDLMPNIRLMQGFGHFLFRYVNGPVLIRKLYSWWNLIMILLQYFAIMGNLVMNTGDVNELTANTITTLFFTHSVTKFIYVAVNSEHFYRTLGIWNQPNSHSLFAESDARYHSIALAKMRKLLVMVMVTTVLSVVAWITITFFGDSVKNVFDKETNETYTVEIPRLPIKAWYPWDAMSGVPYFFSFIYQAYFLLFSMCQANLADVMFCSWLLFTCEQLQHLKNIMKPLMEFSATLDTVVPNSGELFKAGSAEQPKEQEPLPPVTPPQGENMLDMDLRGIYSNRTDFTTTFRPTAGMTFNGGVGPNGLTKKQEMLVRSAIKYWVERHKHIVRLVTAIGDAYGVALLLHMLTTTITLTLLAYQATKIHAVDTYAASVVGYLLYSLGQVFMLCIFGNRLIEESSSVMEAAYSCHWYDGSEEAKTFVQIVCQQCQKAMSISGAKFFTVSLDLFASVLGAMVTYFMVLVQLK
Odorant receptor AaOR8; [1]
  response (relative amount of luminescence) to 1-octan-3-ol: responded more strongly to 1-octan-3-ol

B3: Ag(NT-TM4)AmORCO: chimeric co-receptor: NT to TM4 from Anopheles co-receptor, IC2 to C-terminal domain from Apis co-receptor; SEQ ID NO:114 (protein)
chain: MQVQPTKYVGLVADLMPNIRLMQASGHFLFRYVTGPILIRKVYSWWTLAMVLIQFFAILGNLATNADDVNELTANTITTLFFTHSVTKFIYFAVNSENFYRTLAIWNQTNTHPLFAESDARYHSIALAKMRKLLVLVMATTVLSVVAWVTITFFGESVKTVLDKATNETYTVDIPRLPIKSWYPWNAMSGPAYIFSFIYQIYFLLFSMVQSNLADVMFCSWLLLACEQLQHLKNIMKPLMEFSATLDTVVPNSGELFKAGSAEQPKEQEPLPPVTPPQGENMLDMDLRGIYSNRTDFTTTFRPTAGMTFNGGVGPNGLTKKQEMLVRSAIKYWVERHKHIVRLVTAIGDAYGVALLLHMLTTTITLTLLAYQATKIHAVDTYAASVVGYLLYSLGQVFMLCIFGNRLIEESSSVMEAAYSCHWYDGSEEAKTFVQIVCQQCQKAMSISGAKFFTVSLDLFASVLGAMVTYFMVLVQLK
Odorant receptor AaOR8; [1]
  concentration of 1-octan-3-ol at which cells responded: responded to 1-octan-3-ol at a lower concentration

B4: Dm(TM1-4Aa)AaORCO: chimeric co-receptor: amino-terminal domain, EC1, IC1, EC2 from Drosophila co-receptor, other domains from Aedes co-receptor; SEQ ID NO:86 (protein)
chain: MTTSMQPSKYTGLVADLMPNIRAMKYSGLFMHNFTGGSAFMRKLYSWWNLIMILLQYFAIMGNLVLNAEEVNELSGNTITTLFFTHSVTKFIYVAVNQKNFYRTLNIWNQVNTHPLFAESDARYHSIALAKMRKLLVMVMVTTVLSVVAWITITFFGDSVKMVVDHETNSSIPVEIPRLPIKSFYPWNASSGVPYFFSFIYQAYFLLFSMCQANLADVMFCSWLLFTCEQLQHLKGIMRPLMELSATLDTYRPNSAALFRVASAGSKSELILNEEKDPDTKDFDLNGIYNSKADWGAQFRAPSTLQTFGDNGINGNPNGLTKKQELMVRSAIKYWVERHKHVVRLVSAIGETYGAALLLHMLTSTIKLTLLAYQATKIDALNVYGLTVIGYLVYALAQVFLFCIFGNRLIEESSSVMEAAYSCHWYDGSEEAKTFVQIVCQQCQKAMTISGAKFFTVSLDLFASVLGAVVTYFMVLVQLK
Odorant receptor AaOR8
  intensity of response (relative amount of luminescence) to 1-octen-3-ol: the intensity of response to 1-octen-3-ol was decreased

B5: Aa(TM1-4Dm)AaORCO: chimeric co-receptor: first to fourth transmembrane domains from Drosophila co-receptor, other domains from Aedes co-receptor; SEQ ID NO:82 (protein)
chain: MNVQPTKYHGLVLDLMPNIRLMQGFGHFLFRYVNGPVLIKKVYSSVHLVFLLMQFTFILVNMAMNTGDVNELTANTITTLFFTHCITKFIYLAVNSEHFYRTLGIWNQPNSHSLFAESDARYHSIALAKMRKLFFLVMLTTVASATAWTTITFFGDSVKNVFDKETNETYTVEIPRLPIKAWYPWDAMHGMFYMISFAFQIYYVLFSMIHSNLCDVMFCSWLIFACEQLQHLKGIMRPLMELSATLDTYRPNSAALFRVASAGSKSELILNEEKDPDTKDFDLNGIYNSKADWGAQFRAPSTLQTFGDNGINGNPNGLTKKQELMVRSAIKYWVERHKHVVRLVSAIGETYGAALLLHMLTSTIKLTLLAYQATKIDALNVYGLTVIGYLVYALAQVFLFCIFGNRLIEESSSVMEAAYSCHWYDGSEEAKTFVQIVCQQCQKAMTISGAKFFTVSLDLFASVLGAVVTYFMVLVQLK
Odorant receptor AaOR8
  intensity of response (relative amount of luminescence) to 1-octen-3-ol: the intensity of response to 1-octen-3-ol was decreased
